Laboratory results from patent US20230265215A1 (OMEROS, published 2023).

Experiments:
Zymogen MASP-2 (human) = target: T1, Zymogen MASP-2 (human) (human, UniProt O00187 16-686, limits assumed); assay: SPR, immobilized OMS858, fluid phase MASP-2
T1 construct: also called zymogen form of human MASP-2

[1] = target: T2, Catalytically active MASP-2 (human) (human, UniProt O00187 16-686, limits assumed); assay: SPR, immobilized OMS858, fluid phase MASP-2
T2 construct: also called catalytically active form of human MASP-2
T2 sequence (O00187 16-686 limits assumed): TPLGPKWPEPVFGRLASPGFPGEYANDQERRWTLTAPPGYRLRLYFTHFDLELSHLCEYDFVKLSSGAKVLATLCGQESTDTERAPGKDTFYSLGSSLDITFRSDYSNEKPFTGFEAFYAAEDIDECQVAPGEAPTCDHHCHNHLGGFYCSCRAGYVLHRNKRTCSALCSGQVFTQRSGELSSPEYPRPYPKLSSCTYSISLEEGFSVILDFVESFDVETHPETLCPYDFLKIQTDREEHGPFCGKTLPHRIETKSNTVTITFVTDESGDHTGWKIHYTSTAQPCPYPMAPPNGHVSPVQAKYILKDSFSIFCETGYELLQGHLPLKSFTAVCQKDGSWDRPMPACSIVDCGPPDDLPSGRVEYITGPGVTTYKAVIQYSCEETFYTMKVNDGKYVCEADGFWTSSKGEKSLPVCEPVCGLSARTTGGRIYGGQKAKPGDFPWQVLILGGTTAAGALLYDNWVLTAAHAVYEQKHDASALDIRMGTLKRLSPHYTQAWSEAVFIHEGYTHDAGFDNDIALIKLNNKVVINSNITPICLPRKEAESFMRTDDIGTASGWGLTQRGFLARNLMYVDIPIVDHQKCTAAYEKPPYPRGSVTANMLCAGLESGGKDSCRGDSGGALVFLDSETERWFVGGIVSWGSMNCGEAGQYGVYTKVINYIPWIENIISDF

[2] = target: human MASP-2 (endogenous, in normal human serum) (human, UniProt O00187 16-686); assay: cell-based or functional assay
Chain of human MASP-2 (endogenous, in normal human serum) (O00187 16-686 limits assumed): as above

MASP-1 = target: T3, MASP-1 (human, UniProt P48740 20-699, limits assumed); assay: solid phase ELISA, immobilized protease, apparent KD
T3 construct: Species read from 'Recombinant human MASP-2 or C1r, C1s, CFD, MASP-1 and MASP-3'
T3 sequence (looked up): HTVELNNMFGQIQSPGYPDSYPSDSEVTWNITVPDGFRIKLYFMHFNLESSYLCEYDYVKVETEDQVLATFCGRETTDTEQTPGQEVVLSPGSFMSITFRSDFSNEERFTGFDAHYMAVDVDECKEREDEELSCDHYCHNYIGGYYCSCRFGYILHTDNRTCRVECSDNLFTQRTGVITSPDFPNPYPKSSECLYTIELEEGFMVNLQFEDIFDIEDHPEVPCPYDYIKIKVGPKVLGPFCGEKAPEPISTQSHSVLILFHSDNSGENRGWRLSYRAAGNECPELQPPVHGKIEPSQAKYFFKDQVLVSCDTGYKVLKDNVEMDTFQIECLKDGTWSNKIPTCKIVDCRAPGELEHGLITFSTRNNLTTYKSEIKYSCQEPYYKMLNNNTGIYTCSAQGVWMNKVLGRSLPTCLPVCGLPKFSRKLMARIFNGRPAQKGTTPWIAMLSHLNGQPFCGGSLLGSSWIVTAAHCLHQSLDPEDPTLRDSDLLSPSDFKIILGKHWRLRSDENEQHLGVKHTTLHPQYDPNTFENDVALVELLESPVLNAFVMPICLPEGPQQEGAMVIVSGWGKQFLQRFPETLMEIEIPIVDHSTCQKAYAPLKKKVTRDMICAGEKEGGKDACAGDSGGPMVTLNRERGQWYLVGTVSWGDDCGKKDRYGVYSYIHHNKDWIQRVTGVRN
Excerpt: (§1) The apparent dissociation constant (KD) was estimated by nonlinear regression using a 4-parameter logistic model.

MASP-3 = target: T4, MASP-3 (human, UniProt P48740-2 20-728, limits assumed); assay: as above
T4 construct: Species read from 'Recombinant human MASP-2 or C1r, C1s, CFD, MASP-1 and MASP-3'
T4 sequence (looked up): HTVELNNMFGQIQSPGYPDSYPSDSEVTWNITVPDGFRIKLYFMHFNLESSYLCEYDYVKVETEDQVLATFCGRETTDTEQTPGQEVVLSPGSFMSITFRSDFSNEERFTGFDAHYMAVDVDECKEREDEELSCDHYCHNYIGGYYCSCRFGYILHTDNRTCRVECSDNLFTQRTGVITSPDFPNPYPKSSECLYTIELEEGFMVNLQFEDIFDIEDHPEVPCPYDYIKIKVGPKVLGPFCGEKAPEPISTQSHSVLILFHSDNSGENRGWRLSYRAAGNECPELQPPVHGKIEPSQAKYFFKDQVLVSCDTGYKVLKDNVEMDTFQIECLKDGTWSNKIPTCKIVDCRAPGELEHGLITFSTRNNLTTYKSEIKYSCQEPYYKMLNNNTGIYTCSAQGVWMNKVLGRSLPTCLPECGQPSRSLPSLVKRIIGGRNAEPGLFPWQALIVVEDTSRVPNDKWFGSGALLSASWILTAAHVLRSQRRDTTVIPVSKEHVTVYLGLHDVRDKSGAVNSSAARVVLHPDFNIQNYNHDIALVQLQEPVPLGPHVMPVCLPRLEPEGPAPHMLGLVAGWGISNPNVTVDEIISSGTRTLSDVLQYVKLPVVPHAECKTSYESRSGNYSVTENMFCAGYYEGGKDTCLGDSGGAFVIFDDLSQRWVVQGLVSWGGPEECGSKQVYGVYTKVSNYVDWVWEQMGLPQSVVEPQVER
Excerpt: as §1

[3] = target: T5, human MASP-2 (CCP1-CCP2-SP fragment) (human, UniProt O00187 287-686, limits assumed); assay: solid phase ELISA, plate coated with human MASP-2 (CCP1-CCP2-SP fragment), bound mAb detected with goat anti-human IgG-HRP, OD450
T5 construct: also called human MASP-2 (CCP1/2/SP fragment); hMASP-2-CCP1-CCP2-SP
T5 sequence (O00187 287-686 limits assumed): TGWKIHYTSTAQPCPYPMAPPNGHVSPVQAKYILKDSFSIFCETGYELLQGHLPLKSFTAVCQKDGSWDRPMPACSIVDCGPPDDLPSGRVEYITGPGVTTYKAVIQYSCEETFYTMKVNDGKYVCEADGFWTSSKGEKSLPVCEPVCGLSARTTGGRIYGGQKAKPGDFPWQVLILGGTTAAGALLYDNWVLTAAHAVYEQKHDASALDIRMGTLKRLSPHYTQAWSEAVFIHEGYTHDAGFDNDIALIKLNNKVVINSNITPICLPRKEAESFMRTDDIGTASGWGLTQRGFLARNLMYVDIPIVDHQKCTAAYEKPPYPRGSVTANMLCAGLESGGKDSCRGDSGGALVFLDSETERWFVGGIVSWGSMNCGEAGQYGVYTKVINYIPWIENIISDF
Method: To measure binding of the 26 purified recombinant MASP-2 antibodies to human MASP-2 (CCP1-CCP2-SP fragment), a solid phase ELISA assay was carried out as follows. A MaxiSorp ELISA plate was coated with human MASP-2 (CCP1/2/SP fragment) at 1.0 μg/mL in carbonate/bi-carbonate buffer overnight at 4° C. […] The plate was washed (PBS-T, 0.05%) and a detection antibody was added (goat anti-human IgG-HRP) for one hour at room temperature. After another wash (PBS-T, 0.05%) the plate was developed (5 minutes) with OPT EIA TMB (BD Biosciences #555214). Absorbance reading at A450 was measured using the Spectramax M5e plate reader.
A solid phase ELISA assay was carried out to measure binding of the three selected MASP-2 inhibitory antibodies to human MASP-2 (CCP1-CCP2-SP fragment), as described in Example 1.

T1 sequence (O00187 16-686 limits assumed): as the sequence (O00187 16-686 limits assumed) above

B1: mAb OMS858 (humanized anti-MASP-2 antibody) (antibody, V domains shown)
VH: QVQLVQSGAEVKKPGASVKVSCKASGYTFTNHHMHWLRQAPGQGLEWIGDIDASDSETHYIEKFKDRATLTIDKSSSTAYMELSSLRSEDTAVYYCARGDITTTLRYFDVWGQGTLVTVSS
VL: DIQLTQSPSSLSASVGDRVTITCSASSSVRYMYWYQQKPGKAPKLLIYDTSNLASGVPSRFSGSGSGTDNTLTISSLQPEDFATYYCQQWSSYPLTFGQGTKVEIKR
notes: also called antibody OMS858; biotinylated OMS858
Kd (Zymogen MASP-2 (human)): 715 pM | koff (Zymogen MASP-2 (human)): 0.000172 s⁻¹ | kon (Zymogen MASP-2 (human)): 241000 M⁻¹ s⁻¹ | Kd [1]: 287 pM | koff [1]: 0.00971 s⁻¹ | kon [1]: 3.38e+07 M⁻¹ s⁻¹ | C5b-9 deposition, lectin pathway-specific conditions (Wieslab), human serum, IC50 [2]: 810 pM | MAC deposition under lectin pathway-specific conditions (Wieslab COMPL300), IC50 [2]: ~1000 pM | Kd (MASP-1): > 100 µg/mL | Kd (MASP-3): > 100 µg/mL | EC50 (read off the curve) [3]: ~200 pM
